# Experimental data: the supplement of paper PMC10126150
# ± gives the standard deviation of the averaged measurements.
# Test system: ATP
# Test: switch fluorescence ratio, 500 uM ATP over buffer (Cy3 cluster intensity, sum of 5 cycles each) (fold (ratio)); higher = stronger signal-on switching upon ATP binding; sequences stand for … in TCGTCGGCAGCGTCAGATGTGTATAAGAGACAGTTTTTTTTTTTTTTTTTTTTTTTTT…TC
# Conditions: aptamer strand: ATP DNA aptamer (quencher-CACCTGGGGGAGTATTGCGGAGGAAGG + anchor), 100 nM annealed; ATP concentration: 500 uM
# Outline: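 Per cluster, summed Cy3 intensity from the target cycles was divided by that from the buffer cycles to give the fluorescence ratio, then averaged per switch-domain sequence. Clusters outside 100-1000 RFU were excluded. The Cy3-labelled switching-strand clusters, on a modified Illumina MiSeq flow-cell, were annealed to 100 nM quencher-labelled ATP aptamer and imaged in selection buffer, then after 15 min with 500 uM ATP at 22 °C, for five cycles with NaOH stripping and re-annealing between them.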
# 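Also: ATP exposure 15 min at 22 °C before imaging.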
row,Sequence,switch fluorescence ratio
1,TATTGCTTCA,1.03 ± 0.016
2,TATTGGCGTC,0.985 ± 0.029
3,TATTGGGGGC,1 ± 0.018
4,TATTGGGTGG,0.9919 ± 0.0053
5,TATTGGTCTA,1.04 ± 0.087
6,TATTGGTGGT,0.995 ± 0.027
7,TATTGGTGTT,0.99 ± 0.015
8,TATTGTAATT,1.01 ± 0.014
9,TATTGTATTC,1 ± 0.013
10,TATTGTGGGT,0.98 ± 0.035
11,TATTGTTTCG,1.02 ± 0.029
12,TATTTAAAAA,1.01 ± 0.035
13,TATTTAAGTG,1.039 ± 0.0092
14,TATTTACATT,1.03 ± 0.048
15,TATTTAGATG,1.01 ± 0.018
16,TATTTAGCCC,1.047 ± 0.0069
17,TATTTAGCGT,1.01 ± 0.067
18,TATTTCATTG,1.02 ± 0.03
19,TATTTCCCGT,1.06 ± 0.065
20,TATTTCGATA,1.029 ± 0.0047
21,TATTTCGGGG,1.02 ± 0.023
22,TATTTCTTGG,0.968 ± 0.014

row,Sequence,switch fluorescence ratio
1,TATTTGAAAG,1 ± 0.04
2,TATTTGAAGG,0.986 ± 0.053
3,TATTTGGACT,1.04 ± 0.046
4,TATTTGGGAC,1.02 ± 0.025
5,TATTTGGGTT,1.07 ± 0.082
6,TATTTGTCAT,1.02 ± 0.013
7,TATTTGTGCG,0.988 ± 0.035
8,TATTTGTTGC,1.03 ± 0.041
9,TATTTGTTTG,0.984 ± 0.03
10,TATTTTAAGT,0.993 ± 0.038
11,TATTTTACAG,1.02 ± 0.02
12,TATTTTAGTG,0.996 ± 0.025
13,TATTTTGAAA,0.992 ± 0.027
14,TATTTTGGTC,1.025 ± 0.0078
15,TATTTTTAAA,1.02 ± 0.028
16,TATTTTTCAT,1.01 ± 0.052
17,TATTTTTT,1.02 ± 0.027
18,TATTTTTTAG,0.96 ± 0.013
19,TCAAAAAGTG,0.989 ± 0.034
20,TCAAAAATAT,0.987 ± 0.025
21,TCAAAATTTC,1.01 ± 0.0072
22,TCAAAATTTT,1.01 ± 0.012

row,Sequence,switch fluorescence ratio
1,TCAAACAGCG,0.9861 ± 0.00055
2,TCAAAGCGGA,1.01 ± 0.046
3,TCAAATACG,1.057 ± 0.009
4,TCAAATTATG,1.01 ± 0.035
5,TCAAATTGCC,0.982 ± 0.016
6,TCAAATTTTG,0.999 ± 0.021
7,TCAACCTTTT,1.04 ± 0.052
8,TCAACGAGTA,1.029 ± 0.0061
9,TCAACGGGGG,1.08 ± 0.17
10,TCAACGGTCT,0.9955 ± 0.0048
11,TCAAGAGGCG,1.019 ± 0.0029
12,TCAAGGCAA,1.8 ± 0.037
13,TCAAGGGGGA,1 ± 0.035
14,TCAAGGGGTT,1.1 ± 0.15
15,TCAAGGGTTC,1.03 ± 0.064
16,TCAAGTAGAG,0.99 ± 0.011
17,TCAAGTATCT,1.02 ± 0.041
18,TCAAGTATGT,1.006 ± 0.01
19,TCAAGTTACA,1.078 ± 0.0041
20,TCAAGTTATT,0.973 ± 0.0099
21,TCAAGTTTG,1.011 ± 0.0069
22,TCAATACTTC,1.88 ± 0.19

row,Sequence,switch fluorescence ratio
1,TCAATAGACC,1.05 ± 0.011
2,TCAATAGTAC,1.084 ± 0.0024
3,TCAATCGGGT,0.995 ± 0.053
4,TCAATGGCTA,1.02 ± 0.018
5,TCAATGTTTG,1.008 ± 0.0069
6,TCAATTCAGG,1.01 ± 0.016
7,TCAATTTAGG,0.966 ± 0.014
8,TCACATTTTT,0.99 ± 0.076
9,TCACCCGTTT,0.993 ± 0.016
10,TCACGAATTT,1 ± 0.014
11,TCACGCAGGG,1.03 ± 0.023
12,TCACGCTTGA,1.05 ± 0.052
13,TCACGGACAG,1.3 ± 0.057
14,TCACGGGGGG,1.08 ± 0.1
15,TCACGGTAAT,1.16 ± 0.097
16,TCACGGTAGG,0.999 ± 0.012
17,TCACGGTGTG,0.983 ± 0.02
18,TCACGTTCTG,1.03 ± 0.029
19,TCACGTTGGA,1.01 ± 0.019
